Laboratory results as given in publication doi:10.1101/2025.03.12.642038, “Structural, biophysical and biological analysis and characterisation of IRF4 DNA-binding domain mutations associated with multiple myeloma”.

Key:
Details in all cases: protein: recombinant; tags: N-terminal His8-linker-His8-TEV, cleaved; label: 3' biotin; hairpin, TTTT loop
[1] = target: T1, IRF4 DBD T95A (Homo sapiens, UniProt Q15306 20-132, T95A); assay: SPR steady state; FP: PBS + 0.05% Tween20, 5 nM DNA, 1 h, room temperature; SPR: Biacore S200, SA chip, protein 0.1-4500 nM, running buffer not given in material; errors are SD
T1 sequence: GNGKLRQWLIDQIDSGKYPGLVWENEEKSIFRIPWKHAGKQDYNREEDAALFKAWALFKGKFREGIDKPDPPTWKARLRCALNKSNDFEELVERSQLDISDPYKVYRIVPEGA

[2] = target: T2, IRF4 DBD C99R (Homo sapiens, UniProt Q15306 20-132, C99R); assay: as above
T2 sequence: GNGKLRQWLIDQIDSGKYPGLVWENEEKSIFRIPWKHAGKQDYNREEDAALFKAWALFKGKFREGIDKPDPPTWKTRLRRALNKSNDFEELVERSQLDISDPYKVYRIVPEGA

[3] = target: T3, IRF4 DBD K59R (Homo sapiens, UniProt Q15306 20-132, K59R); assay: as above
T3 sequence: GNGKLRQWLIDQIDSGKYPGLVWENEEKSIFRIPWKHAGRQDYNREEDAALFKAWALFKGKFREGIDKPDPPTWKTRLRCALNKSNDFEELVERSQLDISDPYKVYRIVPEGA

[4] = target: T4, IRF4 DBD D117A (Homo sapiens, UniProt Q15306 20-132, D117A); assay: as above
T4 sequence: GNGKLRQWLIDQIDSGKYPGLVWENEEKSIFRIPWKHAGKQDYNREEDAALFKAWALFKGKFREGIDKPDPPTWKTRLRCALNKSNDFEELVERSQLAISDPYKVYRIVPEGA

[5] = target: T5, IRF4 DBD S114N (Homo sapiens, UniProt Q15306 20-132, S114N); assay: as above
T5 sequence: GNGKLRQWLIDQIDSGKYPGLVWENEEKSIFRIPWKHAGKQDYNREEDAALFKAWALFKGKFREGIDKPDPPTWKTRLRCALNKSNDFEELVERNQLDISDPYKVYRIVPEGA

[6] = target: T3, IRF4 DBD K59R; assay: SPR two-state kinetic; FP: PBS + 0.05% Tween20, 5 nM DNA, 1 h, room temperature; SPR: Biacore S200, SA chip, protein 0.1-4500 nM, running buffer not given in material; errors are SD
[7] = target: T6, IRF4 DBD T95R (Homo sapiens, UniProt Q15306 20-132, T95R); assay: as above
T6 sequence: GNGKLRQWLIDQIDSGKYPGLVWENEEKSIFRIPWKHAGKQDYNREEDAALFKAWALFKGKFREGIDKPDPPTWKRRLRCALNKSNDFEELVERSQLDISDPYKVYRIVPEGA

[8] = target: T7, IRF4 DBD L70V (Homo sapiens, UniProt Q15306 20-132, L70V); assay: as above
T7 sequence: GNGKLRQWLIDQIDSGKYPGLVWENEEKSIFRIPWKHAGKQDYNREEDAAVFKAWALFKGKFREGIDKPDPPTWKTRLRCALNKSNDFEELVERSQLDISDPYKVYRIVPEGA

[9] = target: T4, IRF4 DBD D117A; assay: as above
[10] = target: T8, IRF4 DBD D117H (Homo sapiens, UniProt Q15306 20-132, D117H); assay: as above
T8 sequence: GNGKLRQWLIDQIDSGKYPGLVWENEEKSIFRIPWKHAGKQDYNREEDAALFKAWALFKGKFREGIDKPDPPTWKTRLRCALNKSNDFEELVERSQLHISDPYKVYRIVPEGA

[11] = target: T9, IRF4 DBD C99A (Homo sapiens, UniProt Q15306 20-132, C99A); assay: as above
T9 sequence: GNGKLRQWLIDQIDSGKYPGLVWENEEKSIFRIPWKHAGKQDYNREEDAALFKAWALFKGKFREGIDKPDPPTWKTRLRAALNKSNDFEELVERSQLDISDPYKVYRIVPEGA

## CTTGGTTTCACTTCCTGCGTTTTCGCAGGAAGTGAAACCAAG (structured_DNA) [IRE hairpin (biotin)]
[1]
  Kd: 186 ± 82 nM
[2]
  Kd: 546 ± 174 nM
[3]
  Kd: 275 ± 93 nM
[4]
  Kd: 301 ± 87 nM
[5]
  Kd: 291 ± 79 nM
[6]
  Kd: 460 ± 429 nM
[7]
  Kd: 481 ± 149 nM
[8]
  Kd: 121 ± 111 nM
[9]
  Kd: 293 ± 213 nM
[10]
  Kd: 204 ± 131 nM
[11]
  Kd: 61 ± 29 nM
